Here are results for 132 substances from the supplement of paper PMC12042874.

± gives the uncertainty stated by the source.

The nature of the data set: amyloid nucleation score (Sup35N fusion, yeast selection) (log enrichment); library NNK3; higher = more nucleation; inactive = no reads after selection. Summed up: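 For the nucleation score, DiMSum gave the log enrichment of output over input reads, centred on the mode score of non-aggregating sequences. Psi-negative yeast expressing Sup35N fused to peptides of 20 random codons were induced with 100 μM copper sulfate for 24 hours and grown 7 days at 30°C on medium lacking adenine and uracil. Input and output plasmid inserts were Illumina-sequenced, and sequences with under 100 input reads were excluded.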
WWVIVGSAYVFDISIHFSSP had an amyloid nucleation score of 1.24 ± 0.096.

Turning to LCAYNSTWSACNWGFIHNSL, the amyloid nucleation score amounted to 2.58 ± 0.051.

For SVDYQGYNGKKYLFTISLRC, the amyloid nucleation score entry is “inactive”.

With SCVMSWIFWNFVWCYSVRCV, the amyloid nucleation score result was “inactive”.

For the substance VGVMLYWVKEFFVL, the amyloid nucleation score result is “inactive”.

Consider TLVLVTRQLSFCRMDSRIEF, for which the amyloid nucleation score entry is “inactive”.

RHLLTISKPEMMCGDADEYR: the amyloid nucleation score result was “inactive”.

For RNLKN, the amyloid nucleation score entry was “inactive”.

Turning to GGTLFLYGLIHQHWFLRMHE, the amyloid nucleation score is 1.05 ± 0.16.

With NMIIVDFDNLLYNMNYHLAG, the amyloid nucleation score turned out to be 1.49 ± 0.11.

LMNYRMGWWFVCENYNEML returned an amyloid nucleation score of 0.571 ± 0.17.

Take QQCCTLVCWRRMI: the amyloid nucleation score entry was “inactive”.

Turning to TMHGAQFCD, the amyloid nucleation score entry is “inactive”.

Turning to TVSTE, the amyloid nucleation score entry is “inactive”.

Take FGVCSLFESCIVSFNIVRRL: the amyloid nucleation score entry is “inactive”.

SMRKRKRIKLDI: the amyloid nucleation score entry is “inactive”.

Regarding HNNTIVASWRHDNRACA, the amyloid nucleation score result was “inactive”.

In the case of LINFEY, the amyloid nucleation score stood at 1.16 ± 0.073.

As for WRVYVFNVLETYMLRVKWVG, the amyloid nucleation score entry was “inactive”.

As to MGLIERLWWSTPIKF, the amyloid nucleation score entry is “inactive”.

For the substance FISDRGGLVRMNYPPRHW, the amyloid nucleation score entry is “inactive”.

For the substance RHSNMSRIPMVLNKEKPGTR, the amyloid nucleation score entry was “inactive”.

Turning to SIMFGNLSMAKVKYMNFL, the amyloid nucleation score was 0.862 ± 0.12.

Take FRMPDGELSGT: the amyloid nucleation score entry was “inactive”.

As to ACCRSNDYDSYTPFDVVNHW, the amyloid nucleation score entry was “inactive”.

On to ASGLDIISSSNKLH, for which the amyloid nucleation score result was “inactive”.

Regarding CPTIPMVGTF, the amyloid nucleation score result is “inactive”.

In the case of MMPIRKKMNHRVTWEILWQR, the amyloid nucleation score entry was “inactive”.

Turning to LTCWSVVMFTCHP, the amyloid nucleation score entry is “inactive”.

With FICILIISKGSIVPFFLRHR, the amyloid nucleation score entry is “inactive”.

Turning to MSADSCCSSCLVSTGTRVTF, the amyloid nucleation score entry was “inactive”.

Take HKEVMKNLCIFYPTDEMYRV: the amyloid nucleation score result is “inactive”.

In the case of VYLRHWAIYVIESVLQGSCR, the amyloid nucleation score result was “inactive”.

As to YSSSFIWMAYESIYFFLIFI, the amyloid nucleation score result was “inactive”.

With EHRLVDCDVWVR, the amyloid nucleation score turned out to be 2.82 ± 0.077.

For the substance CVWTSVLDVRYLYWCNVDVR, the amyloid nucleation score result was “inactive”.

Consider VMMDWILQIVAYSSDHTGSK, for which the amyloid nucleation score result was “inactive”.

With EATWMSLRYV, the amyloid nucleation score result is “inactive”.

For FGEFKDCQGFSKF, the amyloid nucleation score result was “inactive”.

For the substance LSDSY, the amyloid nucleation score result was “inactive”.

In the case of RDMFIYKTCMKVCVQLPYII, the amyloid nucleation score result was “inactive”.

For the substance MTWNTGLYSRGRHGFYGFST, the amyloid nucleation score turned out to be 1.26 ± 0.15.

On to SLVYMWPDGTFLRWMGAWH, for which the amyloid nucleation score result was “inactive”.

As for KPNLRFLS, the amyloid nucleation score result was “inactive”.

For the substance LESEASGYKMSKVRVAQCRR, the amyloid nucleation score entry was “inactive”.

Consider RYRLSMELT, for which the amyloid nucleation score result is “inactive”.

With VISFDVWSNRMCFLMGMIWH, the amyloid nucleation score result was “inactive”.

GCFYIFRIY displayed an amyloid nucleation score of -0.222 ± 1.3.

Turning to DDDEVASCLPYWRCAALKSG, the amyloid nucleation score entry is “inactive”.

Regarding WHSKKLRICHLGCFVQTDWV, the amyloid nucleation score entry was “inactive”.

Consider SKEAVLRVNPVVTFFSGSTR, for which the amyloid nucleation score result is “inactive”.

DCWHLRQLWGVMSCQ showed an amyloid nucleation score of 0.48 ± 0.42.

As to YTDWGYDLRNGAGNGYIT, the amyloid nucleation score result is “inactive”.

On to NLEYDPIRHRNVLNPSWFCS, for which the amyloid nucleation score result was “inactive”.

As to SQFLLYTVQQFRWTACHVAF, the amyloid nucleation score result was “inactive”.

Consider QGNSRRSLINLHSLNKNILH, for which the amyloid nucleation score result was “inactive”.

In the case of QLVVRCPCYNETVG, the amyloid nucleation score result is “inactive”.

With LKLMKNDCRFSNGNLVVVRV, the amyloid nucleation score result is “inactive”.

Regarding LNWLC, the amyloid nucleation score turned out to be 1.07 ± 0.086.

Regarding TCCICIMSSYRLGRNLLIEL, the amyloid nucleation score was -0.075 ± 0.26.

With FGFFWP, the amyloid nucleation score result is “inactive”.

As for SRYMARTSDPARYVTPVSNT, the amyloid nucleation score result was “inactive”.

Consider ALHFDFIFIYRDRCCCCTFY, for which the amyloid nucleation score was determined as 1.27 ± 0.1.

Turning to RQIMGQKRKNRQESFGFVGC, the amyloid nucleation score result was “inactive”.

Substance CLRVLWLSQLTVSCDF displayed an amyloid nucleation score of -0.354 ± 1.8.

For the substance VYLKLSILFSCAFSN, the amyloid nucleation score entry is “inactive”.

On to TVMDVLCECYMIVFRG, for which the amyloid nucleation score amounted to 0.875 ± 0.13.

Substance DLIWWRGAQAVNTLNSGSKR showed an amyloid nucleation score of 0.115 ± 1.

Regarding GYVGLHTFSWEDLENRMDKH, the amyloid nucleation score result is “inactive”.

Regarding LISNFVWLQLRCA, the amyloid nucleation score result is “inactive”.

For SSKASSFVFMACGPGTEVIG, the amyloid nucleation score result is “inactive”.

In the case of FKWQEW, the amyloid nucleation score was -0.943 ± 1.3.

SFLGCFHGDY: the amyloid nucleation score result was “inactive”.

Turning to LIELSSSPRSYGHQVLM, the amyloid nucleation score result was “inactive”.

As to GKSLMK, the amyloid nucleation score entry is “inactive”.

For NTCMQPCLSRVCFELDVGCR, the amyloid nucleation score result is “inactive”.

As for GNHQSRYSFVP, the amyloid nucleation score entry is “inactive”.

Substance LANSKLDCLSVHLFEHNCLA gave an amyloid nucleation score of 1.95 ± 0.069.

As for RMHGETARWLGAQIWSDRSC, the amyloid nucleation score entry is “inactive”.

As for YYTGCHSSVSC, the amyloid nucleation score entry was “inactive”.

For MTYST, the amyloid nucleation score result is “inactive”.

Consider LNCNSESMLPLYNMVWRNRN, for which the amyloid nucleation score result is “inactive”.

With GGCIGGSYSLERMFYSRVDE, the amyloid nucleation score result is “inactive”.

On to LVGGTTLLIPVCS, for which the amyloid nucleation score result was “inactive”.

CFHVILFK came in with an amyloid nucleation score of 1.11 ± 0.095.

On to RFIVCCKTGCVY, for which the amyloid nucleation score result was “inactive”.

Regarding LYNILFWTPNFRFVSWYHCI, the amyloid nucleation score result was “inactive”.

On to FFPFPKFWAGIVIAFY, for which the amyloid nucleation score entry was “inactive”.

ISVSRKLLKCLVKCMNPGCG: the amyloid nucleation score entry was “inactive”.

For SFEYHNWNDM, the amyloid nucleation score was determined as 0.361 ± 0.18.

Regarding RFNSWRSCIWLM, the amyloid nucleation score result is “inactive”.

As to WLNVLNSYSDRSYLKETRLR, the amyloid nucleation score result is “inactive”.

For the substance FRHFRSLLSVFLVYRFQLSV, the amyloid nucleation score entry is “inactive”.

For the substance GLAQTSLFI, the amyloid nucleation score entry is “inactive”.

With SFSMKKGQHQLIS, the amyloid nucleation score result is “inactive”.

In the case of SSYCGHCNYEPRSSWFILFF, the amyloid nucleation score stood at 1.61 ± 0.072.

Take VSDYYDKYGLYFCWFWDGYK: the amyloid nucleation score entry was “inactive”.

Consider HKWSAAIEIGSVKDNRIKLL, for which the amyloid nucleation score entry is “inactive”.

In turn, LGKHRANHCMAGQDVAYKWV had an amyloid nucleation score of -0.831 ± 1.1.

Turning to SHKPLDRYLIEWLGLQELLT, the amyloid nucleation score result was “inactive”.

With MLWRTDHMYY, the amyloid nucleation score result is “inactive”.

Take MKGVLAKNGYIDGVLGNTAM: the amyloid nucleation score result is “inactive”.

Regarding SVDEVRCTCVYSCGVWPGGC, the amyloid nucleation score entry was “inactive”.

For VRVLFGPFYYVFGSYLIGLV, the amyloid nucleation score result was “inactive”.

Turning to FSFTIDAYRHRTTSVLMRMS, the amyloid nucleation score result is “inactive”.

Turning to VICRKLVMPFVESNRWHWSN, the amyloid nucleation score entry was “inactive”.

For RCSLLRNIG, the amyloid nucleation score entry is “inactive”.

As to SSSESKFLYTDMWHMYWDFC, the amyloid nucleation score came out at 0.548 ± 0.14.

As to CSFTARFLHTMSPKKFKLGN, the amyloid nucleation score entry is “inactive”.

Take WVYWRKSSILSTHRNIVKHW: the amyloid nucleation score result was “inactive”.

Turning to YHLDIKNFHTLCWGPYFTSM, the amyloid nucleation score was found to be 0.789 ± 0.25.

For the substance FSIWKV, the amyloid nucleation score entry is “inactive”.

Consider LRFVHDVLDFGASMSLRRK, for which the amyloid nucleation score stood at 0.606 ± 0.1.

With NFSNHCRKLGEME, the amyloid nucleation score result was “inactive”.

As to PNGREWIMKYVGDAGYRVLS, the amyloid nucleation score was determined as 0.515 ± 0.36.

On to VIYVKSIMSFSLCDFDY, for which the amyloid nucleation score is 3.11 ± 0.074.

As for TVHKVSGKDQGWMYGHMLFC, the amyloid nucleation score result is “inactive”.

Regarding AINVRRSLTTYPNFLDTVRS, the amyloid nucleation score entry was “inactive”.

As for RRIFCLLVANDRLSMRVKCP, the amyloid nucleation score result is “inactive”.

On to FSGRMVFNPPIISCSYSWSW, for which the amyloid nucleation score entry was “inactive”.

For the substance QMSGMFTLVDWT, the amyloid nucleation score entry was “inactive”.

Take HKDMVNASLPGITSARWLGR: the amyloid nucleation score result is “inactive”.

Turning to LYLLSKRFHNLYLLDKVLKY, the amyloid nucleation score entry is “inactive”.

As to NTYDAVISIACVSHQSICST, the amyloid nucleation score entry was “inactive”.

Turning to RIHVSKLLTWTGSSLVVWSA, the amyloid nucleation score entry was “inactive”.

VTLLWFISPFMMHWWVQRNG registered an amyloid nucleation score of -0.191 ± 1.

With ELPLSSCNRCGECYGLAIVA, the amyloid nucleation score entry is “inactive”.

Consider NGYPHLIQHYLVNAG, for which the amyloid nucleation score result was “inactive”.

ISILLIFPCEAVIFLPF: the amyloid nucleation score result is “inactive”.

LAGCNPLASARFVWVI: the amyloid nucleation score entry was “inactive”.

LVFMQRNIENISCCVTLYYQ had an amyloid nucleation score of 2.51 ± 0.071.

Substance VVLSWT returned an amyloid nucleation score of -0.477 ± 1.1.
